According to patent publication US20250289873A1 (BROADWING BIO, published 2025):
Substitutions are numbered along the chain they refer to.

T1: human CFHL3-His (ATX-P-58) (human, UniProt Q02985 19-330)
T1 construct: also called human CFHR3 protein; CFHR3; not shown: C-terminal His tag (and linker)
T1 sequence (looked up): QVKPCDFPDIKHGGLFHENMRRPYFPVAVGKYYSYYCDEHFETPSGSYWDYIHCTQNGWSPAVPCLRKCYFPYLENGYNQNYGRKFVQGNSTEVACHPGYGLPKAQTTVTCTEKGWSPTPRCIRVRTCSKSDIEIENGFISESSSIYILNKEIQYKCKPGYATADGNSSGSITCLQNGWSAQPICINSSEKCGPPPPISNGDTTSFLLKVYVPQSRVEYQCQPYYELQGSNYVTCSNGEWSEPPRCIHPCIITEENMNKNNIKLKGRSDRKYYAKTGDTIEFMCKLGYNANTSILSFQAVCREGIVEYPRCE

T2: Human CFHL1-Y402H-His (ATX-P-421) (human)
T2 construct: also called human CFHL-1 (Y402H) protein
T2 chain: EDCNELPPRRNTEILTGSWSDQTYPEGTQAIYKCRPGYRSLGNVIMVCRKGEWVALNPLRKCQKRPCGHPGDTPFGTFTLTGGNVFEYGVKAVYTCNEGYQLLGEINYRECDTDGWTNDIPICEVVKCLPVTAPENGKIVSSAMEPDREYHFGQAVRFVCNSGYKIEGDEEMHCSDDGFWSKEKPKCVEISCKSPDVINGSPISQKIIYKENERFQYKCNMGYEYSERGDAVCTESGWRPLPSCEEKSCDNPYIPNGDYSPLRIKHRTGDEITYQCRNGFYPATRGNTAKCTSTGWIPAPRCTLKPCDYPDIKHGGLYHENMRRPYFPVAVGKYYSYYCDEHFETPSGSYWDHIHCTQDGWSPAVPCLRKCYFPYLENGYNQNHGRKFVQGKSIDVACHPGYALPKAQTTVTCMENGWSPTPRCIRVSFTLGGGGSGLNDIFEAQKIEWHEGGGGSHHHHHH

B1: ATX-P-597 (antibody, human IgG1, kappa, N297A, V domains shown)
VH: QVQLVQSGAEVKKPGASVKVSCKASGYTFTNYYMQWVRQAPGQGLEWLGIIDPSGGSTTYAQKFQGRVTMTRDTSTSTVHMELRSLRSEDTAVYYCARDEGTDRPGWGYWGQGTLVTVSS
VL: DIQMTQSPSSLSASIGDRVTITCRASQSISSYLDWYQRKSGKAPKLLIYAASSLQSGVPSRFSGSGSGTDFTLTISSLQPEDFATYYCQQSYSTPLTFGGGTKVDIKR
B2: ATX-P-560 (antibody, human IgG1, kappa, N297A, V domains shown)
VH: QVQLQQSGPGLVKPSQTLSLTCAISGDSVSSNTAAWNWIRQSPSRGLEWLGRTYYRSKWYNDYAVSVKSRITINPDTSKNQFSLQLSSVTPQDTAIYYCASDNWNNGGPGFDPWGQGTLVTVSS
VL: DIQMTQSPSSVSTSVGDRVTITCRASQGISSWLAWYQQKPGKAPKLLISAASSLQSGVPSRFSGSGSGTDFTLTISTLQPEDFASYYCQQANSFPPTFGQGTRVEIKR
B3: ATX-P-598 (antibody, human IgG1, kappa, N297A, V domains shown)
VH: QVQLQESGPGLVKPSGTLSLTCAVSGGSISSSNWWSWVRQSPGKGLEWIGEIYHSGTTNYNPSLKSRVTISVDKSKNQFSLKLSSATAADTAVYYCARDRLRLGESSSDVFDIWGQGTMVTVSS
VL: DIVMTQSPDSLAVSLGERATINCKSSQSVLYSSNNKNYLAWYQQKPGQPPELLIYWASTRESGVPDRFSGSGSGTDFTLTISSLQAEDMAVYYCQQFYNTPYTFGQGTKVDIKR
B4: ATX-P-601 (antibody, human IgG1, kappa, N297A, V domains shown)
VH: QVQLVQSGAEVKKPGASVKVSCKASGYTFTSYYMHWVRQAPGQGLEWMGIINPSGGSTNYAQKFQGRLTMTRDTSTNTVYMELSSLRSEDTAVYYCATDQSGGMDVWGKGTTVTVSS
VL: DIQMTQSPSSLSASVGDRVTITCRASQSINIYLNWYQQKPEKDPKLLIYAASSLQSGVPSRFSGSGSGTDFTLTISNLQPEDFATYYCQQSYSTPITFGQGTRLEIKR
B5: ATX-P-591 (antibody, V domains shown)
VH: QVQLVQSGAEVKKPGASVKVSCKASGYTFTSYGISWVRQAPGQGLEWMGWISAYNGNTNYAQKLQGRVTMTTDTSTSTAYMELRSLRSDDTAIYYCTRDLRGTAFDYWGQGTPVTVSS
VL: DIQMTQSPSSLSASVGDRVTITCRASQSINTYLNWYQQKPGKAPKLLIYAASSLQSGVPSRFSGSGSGTDFTLTISSLQPEDFATYSCQHSFTTPFTFGPGTKLEIKR
B6: ATX-P-607 (antibody, human IgG1, kappa, N297A, V domains shown)
VH: QVQLVQSGAEVKKPGASVKVSCKASGYTFTSYYMHWVRQAPGQGLEWMGIINPSGGSTSYAQKFQGRVTMTRDTSTNTVYMELSSLRSEDTAVYYCARDPEYSSAFDIWGQGTMVTVSS
VL: B1 VL with I15V, V19G, S30R, D34N, R38Q, S40P, S93R, L96V, G100P
B7: ATX-P-602 (antibody, human IgG1, kappa, N297A, V domains shown)
VH: not shown
VL: EIVLTQSPGTLSLSPGERATLSCRASQSVSSSYLAWYQQKPGQAPRLLIYGASSRATGIPDRFSGSGSGTQFTLTISSLQSEDFAVYYCQQYGSSPWTFGQGTKVDIKR

What follows are binders tested against T1, human CFHL3-His (ATX-P-58) (assay: Carterra LSA biosensor, mAb printed on chip, cutoff set by isotype control).
Description: (§1) Experiments were also conducted to determine the reactivity of the CFHR4 antibodies with the human CFHR3 protein (FIG. 9). The binding experiments were performed on Carterra LSA with a running buffer of PBS pH 7.40, 1% BSA, 0.05% Tween20. Antibodies were covalently printed on an HC30M chip. Chip was activated with 33 mM s-NHS and 133 mM EDC in 100 mM MES pH 5.5 for 7 minutes. Antibodies at 10 mg/ml in acetic acid buffer pH 4.5 were used for printing for 10 min. The printed chip was then quenched with 1 M ethanolamine pH 8.5 for 7 min. For the reactivity assay, ATX-P-58, human CFHL3-His, at 550 nM was tested with 5 min association followed by 15 min dissociation. Results were processed and analyzed in Carterra LSA Kinetics Software. The data was referenced with the interstitial reference spots and double-referenced to a buffer cycle, and then the responses (nm) after association were reported. Isotype control was used to determine the cutoff response for positive binding.
as §1, with “CFHL-1 (Y402H)” for “CFHR3”, “10).” for “9).”, “ATX-P-421,” for “ATX-P-58,”, “CFHL1-Y402H-His,” for “CFHL3-His,”, “380” for “550”

binding result	Binder
no binding (tested: 550 nM)	B1
no binding (tested: 550 nM)	B2
no binding (tested: 550 nM)	B3
no binding (tested: 550 nM)	B4
no binding (tested: 550 nM)	B5
no binding (tested: 550 nM)	B6
no binding (tested: 550 nM)	B7

Target: T2, Human CFHL1-Y402H-His (ATX-P-421)
Experiment: as above
Description: as §1
as §1, with “CFHL-1 (Y402H)” for “CFHR3”, “10).” for “9).”, “ATX-P-421,” for “ATX-P-58,”, “CFHL1-Y402H-His,” for “CFHL3-His,”, “380” for “550”

binding result	Binder
no binding (tested: 380 nM)	B1
no binding (tested: 380 nM)	B2
no binding (tested: 380 nM)	B3
no binding (tested: 380 nM)	B4
no binding (tested: 380 nM)	B6
no binding (tested: 380 nM)	B7

Target: T2, Human CFHL1-Y402H-His (ATX-P-421)
Experiment: Carterra LSA biosensor, mAb printed on chip, human CFHL1-Y402H-His at 380 nM
Description: as §1, with “CFHL-1 (Y402H)” for “CFHR3”, “10).” for “9).”, “ATX-P-421,” for “ATX-P-58,”, “CFHL1-Y402H-His,” for “CFHL3-His,”, “380” for “550”

binding result	Binder
binds	B5
